The text below walks through data of US20080176209.

For this series, the system named is TL-3.

Take “FIV protease (Feline Immunodeficiency Virus protease)”: the “enzymatic reaction activity in a kinetic FRET assay with a fluorogenic substrate peptide over a 20 minute time course” value is recorded as “the enzymatic activity was blocked by TL-3”.
